{"source": "the nanobody polyreactivity screen of Harvey et al. (2022)"}
{"assay": "yeast display, Sf9 membrane polyspecificity reagent, FACS + sequencing; frameworks hold sequencing errors", "method_in_brief": "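Genes from sorted yeast were amplified by colony PCR, read by MiSeq 2 × 250 sequencing and filtered on CDR length. These cells carried a synthetic nanobody library in Saccharomyces cerevisiae BJ5465 and were sorted by FACS into low and high (top ~1%) gates on anti-HA and streptavidin fluorescence. Polyreactivity is labelled according to the gate of origin.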"}
{"sequence": "QVQLVESGGGLVQAGGSLRLSCAASGSTFRTYAMGWYRQAPGTEREFVAVISASGGSTYYADSVKGRFTISRDNAKNTVYLQMNSQKPEDTAVYYCNAGRPRFYRSRWYYYGYGYWGQGTQVTVSS", "polyreactivity (PSR sort gate)": "high polyreactivity"}
{"sequence": "QVQLVESGGGLVQAGGSLRLSCAASGSTFRVNAMGWYRQAPGKERELVAAISGSGSGTYYADSVKGRFTISRDNAKNTVYLQMNSLKPEDTAVYYCAKVPKSRGYVGGMDYWGQGTQVTVSS", "polyreactivity (PSR sort gate)": "low polyreactivity"}
{"sequence": "QVQLVESGGGLVQAGGSLRLSCAASGSTFRVNGMGWYRQAPGKERELVAVISWSGGSTYYADSVKGRFTISRDNAKNSVYLQMNSLKPEDTAVYYCAAKVKAGAGYHYDYYWGQGTQVTVSS", "polyreactivity (PSR sort gate)": "high polyreactivity"}
{"sequence": "QVQLVESGGGLVQAGGSLRLSCAASGSTFRVNVMGWYRQATGKERELVAAITTSGGSTYYADSVKGRFSISRDNAQNTVYFQMNSLKPEDTAVYYCNTTYPSGWGPDMDYWGQGTQVTVSS", "polyreactivity (PSR sort gate)": "low polyreactivity"}
{"sequence": "QVQLVESGGGLVQAGGSLRLSCAASGSTFRVYAMGGDRQAPGKERELVAAITYSGGSTYYADSVKGRFTISRDNAKNTVYLQMNSLKPVDTAVYYCAADGYYGGYNYWGQGTQVTVSS", "polyreactivity (PSR sort gate)": "low polyreactivity"}
{"sequence": "QVQLVESGGGLVQAGGSLRLSCAASGSTFRVYAMGWYRQAPGKESELVATISWGGGRTYYADSVKGRFTISRDNAKNTVYLLMNSLKPEDTAVYYCAADQRWTTDQPTAGDYWGQGTQVTVSS", "polyreactivity (PSR sort gate)": "low polyreactivity"}
{"sequence": "QVQLVESGGGLVQAGGSLRLSCAASGSTFRVYAMGWYRQAPRKERELVAAISKSGVSTYYADSVKGRFTISRDNAMNTVYLQMNSLKPEDTAVYYCPVFLGYSRKYDYWGQGTQVTVSS", "polyreactivity (PSR sort gate)": "high polyreactivity"}
{"sequence": "QVQLVESGGGLVQAGGSLRLSCAASGSTFRWYAMGWYRQAPGTERELVAAISVSTGSTYYADSVKGRFTISRDNAKNTVYVQMNTLKPEDTGVYYCNKVYGWRQFDYWGQGTQVTVSS", "polyreactivity (PSR sort gate)": "high polyreactivity"}
{"sequence": "QVQLVESGGGLVQAGGSLRLSCAASGSTFRWYTMGWYRQAPGKERELVATISSSTDITYYADSVKGRFTISRDNAKNTVYLQMNSLKPEDTAVYYCAARRVYHYRYYYWGQGTQVTVSS", "polyreactivity (PSR sort gate)": "high polyreactivity"}
{"sequence": "QVQLVESGGGLVQAGGSLRLSCAASGSTFRYNAMGWYRQAPGKERELVAAITSGGTTNYADSVKGRFTISRDNAMNTVYLQMNILKPEDTAVYYCGKRGYYWTNLLYFLGYDYWGQGTQVTVSS", "polyreactivity (PSR sort gate)": "low polyreactivity"}
{"sequence": "QVQLVESGGGLVQAGGSLRLSCAASGSTFRYNDMGWYIQAPGKERELVDAITRSDSTNYADSVKGRFTISRDNAKNTVYLQMNSLKPEDTAVYYCAARRHYTYGNGPSRGGQMDYWGQGTQVTVSS", "polyreactivity (PSR sort gate)": "high polyreactivity"}
{"sequence": "QVQLVESGGGLVQAGGSLRLSCAASGSTFRYNTMGWYRQAPGKEMELVARITSVGSTNYADSVKGRFTISRDNAKNTVYFQMNSLKPEDTAVYYCATTRPIRRTSARYNYWGQGTQVTVSS", "polyreactivity (PSR sort gate)": "low polyreactivity"}
{"sequence": "QVQLVESGGGLVQAGGSLRLSCAASGSTFRYNTMGWYRQAPGKERELVAAINISSSSTYYADSVKGRFTISRDNAKNTVYLQMNSLKPEDTAVYYCAKRDYVPIATDENDDYWGQGTQVTVSS", "polyreactivity (PSR sort gate)": "low polyreactivity"}
{"sequence": "QVQLVESGGGLVQAGGSLRLSCAASGSTFRYYAMGWSRQAPGKERELVAAISRSGTSTYYADSVKGRFTISRDNAKNTVYLQMNSLKPEDTAVYYCAADWHSKIGKGYDYWGQGTQVTVSS", "polyreactivity (PSR sort gate)": "high polyreactivity"}
{"sequence": "QVQLVESGGGLVQAGGSLRLSCAASGSTFRYYAMGWYRLAPGKERELVAAITASGTSTYYADSVKGRFTISRDNAKNTVYLQMNSLKPEDTAVYYCAARWRYGYYWGQGTQVTVSS", "polyreactivity (PSR sort gate)": "high polyreactivity"}
{"sequence": "QVQLVESGGGLVQAGGSLRLSCAASGSTFRYYAMGWYRQAPGKERELVAAIDRSGGNTYYADSVKGRFTISRDNAKNTVYLQMYSLKPEDTAVYYCNTASWRAQYYYWGQGTQVTVSS", "polyreactivity (PSR sort gate)": "high polyreactivity"}
{"sequence": "QVQLVESGGGLVQAGGSLRLSCAASGSTFRYYAMGWYRQAPGKERELVAAIRSGGGTYYADSVKGRFTISRDNAKTTVYLQMNSLKPEDTAVYYCAARSYSRRVSYYYWGQGTQVTVSS", "polyreactivity (PSR sort gate)": "high polyreactivity"}
{"sequence": "QVQLVESGGGLVQAGGSLRLSCAASGSTFRYYAMGWYRQAPGKERELVAAISARGTSTYYADSVKGRFTISRDNAKNTVYLQMNSLKPEDTAVYYCNDYLHATEYDYWGQGTQVTVSS", "polyreactivity (PSR sort gate)": "high polyreactivity"}
{"sequence": "QVQLVESGGGLVQAGGSLRLSCAASGSTFRYYAMGWYRQAPGKERELVAAISGSGGRTYYADSVKGRFTISRDNAKNTVYLQMYSLKPEDTAVYYCNTRGRRTDYDYWGQGTQVTVSS", "polyreactivity (PSR sort gate)": "high polyreactivity"}
{"sequence": "QVQLVESGGGLVQAGGSLRLSCAASGSTFRYYAMGWYRQAPGKERELVAAISRSGTSTYYADSVKGRFTISRDNAKKTVYLQMNSLKPEDTAVYYCAADWHSKIGKGYDYWGQGTQVTVSS", "polyreactivity (PSR sort gate)": "high polyreactivity"}
{"sequence": "QVQLVESGGGLVQAGGSLRLSCAASGSTFRYYAMGWYRQAPGKERELVAAITKNGGSTYYADSVKGRFTISRDNAKNTVYLQMNSLKPEDTAVYYCADQYSYSGWYYVSYYYWGQGTQVTVSS", "polyreactivity (PSR sort gate)": "high polyreactivity"}
{"sequence": "QVQLVESGGGLVQAGGSLRLSCAASGSTFRYYAMGWYRQAPGKERELVAGICSGGTTKYADSVKGRFTISRDNAKNTVYLQMNSLKPEDSAVYYCAARFRRTRVTYYYWGQGTQVTVSS", "polyreactivity (PSR sort gate)": "high polyreactivity"}
{"sequence": "QVQLVESGGGLVQAGGSLRLSCAASGSTFRYYAMGWYRQAPGKERELVAVISTSGNTYYADSVKGRFTISRDNAKNTVYLQMNSLKPEDTAVYYCAARGVGGQISQEYDYWGQGTQVTVSS", "polyreactivity (PSR sort gate)": "low polyreactivity"}
{"sequence": "QVQLVESGGGLVQAGGSLRLSCAASGSTFRYYAMGWYRQAPGKEREMVAAISTSGGRTYYADSVKGRFTISRDNAKNTVYLQLNSLKPEDTAVYYCNARESRGYSYQTWKYYYWGQGTQVTVSS", "polyreactivity (PSR sort gate)": "high polyreactivity"}
{"sequence": "QVQLVESGGGLVQAGGSLRLSCAASGSTFRYYGMGWYRQAPGKERELVAAISTGGRTNYADSVKGRFTISRDNAKNTVYLQMNSLKPEDTAVYYCAADFLSPAYRPSWYRFDYWGQGTQVTVSS", "polyreactivity (PSR sort gate)": "low polyreactivity"}
{"sequence": "QVQLVESGGGLVQAGGSLRLSCAASGSTFRYYGMGWYRQAPGKERELVADITSGGTTDYADSVKGRFTISRDNAKNTVYLQMNSLKPEDTAVYYCAAGRWYKRQSTWGFGLDHDYWGQGTQVTVSS", "polyreactivity (PSR sort gate)": "low polyreactivity"}
{"sequence": "QVQLVESGGGLVQAGGSLRLSCAASGSTFRYYTMGWYRQAPGKEREFVASISRSGGSTYYADSVKGRFTISRDNAKNTVYLQMNSLKPEDTAVYYCNAVKGSYSRSQGNEYWGQGTQVTVSS", "polyreactivity (PSR sort gate)": "high polyreactivity"}
{"sequence": "QVQLVESGGGLVQAGGSLRLSCAASGSTFRYYTMGWYRQAPGKERELVAAISWSGGITYYADSVKGRFTISRDNAKNTVYLQMNSLKPEDTAVYYCAADWWAWRAYYYWGQGTQVTVSS", "polyreactivity (PSR sort gate)": "high polyreactivity"}
{"sequence": "QVQLVESGGGLVQAGGSLRLSCAASGSTFRYYTMGWYRQAPGKERELVAAITYSGGSTYYADSVKGRFTISRDNAKNTVYLQMNSLKPEDTAVYYCAKRWSQPKYDYWGQGTQVTVSS", "polyreactivity (PSR sort gate)": "high polyreactivity"}
{"sequence": "QVQLVESGGGLVQAGGSLRLSCAASGSTFRYYTMGWYRQAPGKERELVASISRSGSTSYADSVKGRFTISRDNAKNTVYLLMNSLKPEDTAVYYCARESFFGAYAGYDYWGQGTQVTVSS", "polyreactivity (PSR sort gate)": "low polyreactivity"}
{"sequence": "QVQLVESGGGLVQAGGSLRLSCAASGSTFSAKTIGGYRQAPGKEMELVAGITITGDTYYADSVKGRFTISRDNAKNTVYLQMNSLKPEDTAVYYCAAAWYEPATQTGYFEFDYWGQGTQVTVSS", "polyreactivity (PSR sort gate)": "low polyreactivity"}
{"sequence": "QVQLVESGGGLVQAGGSLRLSCAASGSTFSANAMGWYRQAPGKERELVAAITYRGGNTYYADSVKGRFTISRDNAKNTVYLQMNSLKPEETAVYYCNRDLRVRYRRLKYGYWGQGTQVTVSS", "polyreactivity (PSR sort gate)": "low polyreactivity"}
{"sequence": "QVQLVESGGGLVQAGGSLRLSCAASGSTFSANTMGWYRQAPGKERELVAAISSSGVGTRYADSVKGRFTISRDNAKNTVYLQMNSLKPEDTSVFYCAADYRPTVITRNDYWGQGTQVTVSS", "polyreactivity (PSR sort gate)": "low polyreactivity"}
{"sequence": "QVQLVESGGGLVQAGGSLRLSCAASGSTFSAYAMGWYRQAPGKERELVAAISRSGTRTYYADSVKGRFTISRDNAKNNVYLQMNSLKPEDTAVYYCARYAGRLSYRYEYWGQGTQVTVSS", "polyreactivity (PSR sort gate)": "high polyreactivity"}
{"sequence": "QVQLVESGGGLVQAGGSLRLSCAASGSTFSAYTMGWYRQAPGKERELVARITNGGSTYYAESVKGRFTISRDNAKNTVYLQMNSLKPEDTAVYYCAAQLGWWGSGYWGQGTQVTLSS", "polyreactivity (PSR sort gate)": "high polyreactivity"}
{"sequence": "QVQLVESGGGLVQAGGSLRLSCAASGSTFSDYTMGWFRQAPGKERELVAAITTIGGSTYYADSVKGRFTISRDNAKNTVYLQMNSLKPEDTAVYYCAASYYYPLEYYYWGQGTQVTVSS", "polyreactivity (PSR sort gate)": "low polyreactivity"}
{"sequence": "QVQLVESGGGLVQAGGSLRLSCAASGSTFSDYTMGWSRQAPGKDRVLVAALNAGGSTNYADSVKGRFTISRDNAKNTVYLQMNSLKPEDTAVYYSNADSSYLANGYWDPDYTPYDSWGQGTQVTVSS", "polyreactivity (PSR sort gate)": "low polyreactivity"}
{"sequence": "QVQLVESGGGLVQAGGSLRLSCAASGSTFSEYVMGWYRQAPGKERELVAAIRSNGGSTYYADSVKGRFTISRDNAKNTVYLQMNSLKPEDTAVYYCNRVYSRRTYNSPLYDYWGQGTQVTVSS", "polyreactivity (PSR sort gate)": "high polyreactivity"}
{"sequence": "QVQLVESGGGLVQAGGSLRLSCAASGSTFSFYAMGRYRQAPGKERELVAAISSSGDGTYYADSVKGRFTISRDNAKKTVYLQMNSLKPEDTAVYYCATGSPSGDEWGMDYWGQGTQVTVSS", "polyreactivity (PSR sort gate)": "low polyreactivity"}
{"sequence": "QVQLVESGGGLVQAGGSLRLSCAASGSTFSGYAMGWYRHAPGKERELVAAISRRGTSTYYADSVKGRFTISRDNAKNTVYLQMNSLKPEDTAVYYCAARPSGYVIGGYGYWGQGTQVTVSS", "polyreactivity (PSR sort gate)": "high polyreactivity"}
{"sequence": "QVQLVESGGGLVQAGGSLRLSCAASGSTFSGYAMGWYRQAPGKERDLVAAITKSGGRTYYADSVKGRFTISRDNAQNTVYLQMNSLKQEDTAVYYCAKAYPGTYREYDYWGQGTQVTVSS", "polyreactivity (PSR sort gate)": "high polyreactivity"}
{"sequence": "QVQLVESGGGLVQAGGSLRLSCAASGSTFSGYAMGWYRQAPGKERELVAAITSGGITNYADSVKGRFTISLDNAKNTLYLQMNSLKPEDTAVYYCAKSVSGIGVGYDYWGQGTQVTVSS", "polyreactivity (PSR sort gate)": "low polyreactivity"}
{"sequence": "QVQLVESGGGLVQAGGSLRLSCAASGSTFSGYAMGWYRQAPGKERELVGAISSSGGRTNYADSVKGRFTISRDNAKNTVYLQMNSLKPEDTAVYYCASVGPRTEYSGYRYYYWGQGTQVTVSS", "polyreactivity (PSR sort gate)": "high polyreactivity"}
